Source: US20150246949A1, “Desmoglein 2 (DSG2) Binding Proteins and Uses Therefor” (UNIVERSITY OF WASHINGTON THROUGH ITS CENTER FOR …, priority 2012, published 2015)

Key:
[1] = biological target: T1, human DSG2 on cells (HeLa cells; polarized T84 cells) (human, UniProt Q14126 50-1118); experiment: cell-based or functional assay
T1 sequence: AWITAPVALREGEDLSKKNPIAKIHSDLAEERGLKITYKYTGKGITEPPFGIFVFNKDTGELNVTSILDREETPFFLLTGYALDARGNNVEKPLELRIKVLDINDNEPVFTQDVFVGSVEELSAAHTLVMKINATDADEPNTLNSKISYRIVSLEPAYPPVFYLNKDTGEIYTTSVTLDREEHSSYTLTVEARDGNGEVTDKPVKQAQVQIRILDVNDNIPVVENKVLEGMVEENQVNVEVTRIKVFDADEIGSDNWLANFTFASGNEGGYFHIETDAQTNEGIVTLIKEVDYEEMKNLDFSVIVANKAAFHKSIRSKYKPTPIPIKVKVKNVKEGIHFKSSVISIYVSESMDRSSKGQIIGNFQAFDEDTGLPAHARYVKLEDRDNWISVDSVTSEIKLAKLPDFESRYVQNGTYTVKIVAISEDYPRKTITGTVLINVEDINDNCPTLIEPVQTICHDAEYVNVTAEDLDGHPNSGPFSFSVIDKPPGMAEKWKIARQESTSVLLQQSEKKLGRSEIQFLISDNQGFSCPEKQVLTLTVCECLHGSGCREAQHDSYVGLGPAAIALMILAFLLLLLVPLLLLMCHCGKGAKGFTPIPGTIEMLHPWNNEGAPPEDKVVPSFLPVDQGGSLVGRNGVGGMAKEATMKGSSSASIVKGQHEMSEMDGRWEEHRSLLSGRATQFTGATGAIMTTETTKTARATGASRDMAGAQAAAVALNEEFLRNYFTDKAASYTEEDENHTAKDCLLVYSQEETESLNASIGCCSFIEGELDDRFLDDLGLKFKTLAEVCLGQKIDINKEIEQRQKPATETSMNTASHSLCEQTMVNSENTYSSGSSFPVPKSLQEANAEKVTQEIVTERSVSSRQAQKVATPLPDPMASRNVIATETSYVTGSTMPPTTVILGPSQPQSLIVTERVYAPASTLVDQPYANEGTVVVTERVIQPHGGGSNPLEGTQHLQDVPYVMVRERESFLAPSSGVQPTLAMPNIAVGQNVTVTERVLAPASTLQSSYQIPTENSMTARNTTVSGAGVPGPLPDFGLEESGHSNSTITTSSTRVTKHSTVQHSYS

[2] = biological target: T2, Recombinant human DSG2 protein (Leinco Technologies) (human, UniProt Q14126 50-609); experiment: Western blot of dimeric knob (trimer band), soluble recombinant DSG2 as probe, anti-DSG2 mAb
T2 construct: also called soluble DSG2; soluble recombinant DSG2
T2 sequence: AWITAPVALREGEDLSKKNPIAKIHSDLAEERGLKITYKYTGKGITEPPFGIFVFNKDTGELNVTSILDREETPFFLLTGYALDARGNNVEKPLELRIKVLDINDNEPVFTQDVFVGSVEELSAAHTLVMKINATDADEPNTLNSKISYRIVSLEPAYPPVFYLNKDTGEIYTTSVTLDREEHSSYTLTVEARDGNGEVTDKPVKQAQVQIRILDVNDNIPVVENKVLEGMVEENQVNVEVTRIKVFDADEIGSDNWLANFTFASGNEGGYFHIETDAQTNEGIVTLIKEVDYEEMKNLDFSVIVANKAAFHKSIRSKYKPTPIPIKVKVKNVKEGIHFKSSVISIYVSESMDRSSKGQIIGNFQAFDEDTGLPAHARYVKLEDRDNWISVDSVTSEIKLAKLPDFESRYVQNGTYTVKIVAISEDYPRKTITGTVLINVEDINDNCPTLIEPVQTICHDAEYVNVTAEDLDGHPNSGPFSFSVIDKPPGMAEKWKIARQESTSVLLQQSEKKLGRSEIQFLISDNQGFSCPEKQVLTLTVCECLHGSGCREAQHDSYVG

[3] = biological target: T2, Recombinant human DSG2 protein (Leinco …); experiment: Western blot of dimeric knob, soluble DSG2 as probe (Table 2: 0% residual binding)
[4] = biological target: T1, human DSG2 on cells (HeLa cells; …); experiment: attachment of 3H-labelled Ad3 virus (competitor) to HeLa cells pre-incubated with the dimeric knob
[5] = test system: Ad3-GFP virus; experiment: Competition of Ad3-GFP virus infection on HeLa cells; assay type: cell-based, adenovirus serotype 3 (Ad3); conditions: HeLa cells pre-incubated with knob, 100 pfu/cell Ad3-GFP, GFP at 18 hours
Method: FIG. 3. Competition of Ad3 virus by dimerized Ad3 knob mutants. A) Relative attachment of ^3H-labeled Ad3 virus in the presence of dimeric fiber knob mutants. 1.8×10^5 HeLa cells were incubated with Ad3 knob mutants at a concentration of 2.5 and 100 μg/ml on ice for 1 hour. Then 400 pfu/cell of ^3H-Ad3 virus was added on ice for another hour. Unbound virus particles were washed away. Attachment of virus particles incubated with PBS was taken as 100%. N=3. B) Competition of Ad3-GFP virus infection on HeLa cells. 1.5×10^5 HeLa cells were seeded into 24 well plates. Cells were incubated with the Ad3 knob mutants at increasing concentrations for one hour at room temperature. 100 pfu/cell of Ad3-GFP virus were then added and GFP expression was analyzed 18 hours later by flow cytometry. Left panel: percentage of GFP positive cells. Right panel: mean fluorescence intensity. N=3. The standard deviation was less than 10%. C) Relative attachment of ^3H-labeled Ad3 virus in the presence of dimeric fiber knob mutants with multiple mutations. The study was performed as described in […]) The standard deviation was less than 10%. D) Competition of Ad3-GFP virus infection on HeLa cells. The study was performed as described in C) The standard deviation was less than 10%.
FIG. 9. Analysis of dimeric Ad3 fiber knob mutants with increased affinity to DSG2. A) Competition of Ad3-GFP virus infection on HeLa cells with dimeric affinity-enhanced mutant Y250F and JO-1 (dimeric wt Ad3 fiber knob). The experimental setting is as described for FIG. 3C. left panel: percentage of GFP positive cells. Right panel: mean fluorescence intensity. N=3. The standard deviation was less than 10%. […] 100 pfu/cell of Ad3GFP virus were then added and GFP expression was analyzed 18 hours later. […]
Competition studies were performed on HeLa cells, which express DSG2 (42). […] Transduction was measured based on GFP expression (FIG. 3B). […] Dimeric Ad3 knob mutants with combined mutations were also analyzed for their ability to compete with Ad3 virus for attachment (FIG. 3C) and infection (FIG. 3D).

[6] = biological target: T3, soluble recombinant DSG2 (Homo sapiens, UniProt Q14126); experiment: Western blot of dimeric Ad3 fiber knob mutants probed with soluble DSG2; assay type: binding; conditions: purified dimerized knob mutants
T3 construct: purchased Leinco Technologies, Inc. (St. Louis, Mo.)
T3 sequence (Q14126 50-609 limits assumed): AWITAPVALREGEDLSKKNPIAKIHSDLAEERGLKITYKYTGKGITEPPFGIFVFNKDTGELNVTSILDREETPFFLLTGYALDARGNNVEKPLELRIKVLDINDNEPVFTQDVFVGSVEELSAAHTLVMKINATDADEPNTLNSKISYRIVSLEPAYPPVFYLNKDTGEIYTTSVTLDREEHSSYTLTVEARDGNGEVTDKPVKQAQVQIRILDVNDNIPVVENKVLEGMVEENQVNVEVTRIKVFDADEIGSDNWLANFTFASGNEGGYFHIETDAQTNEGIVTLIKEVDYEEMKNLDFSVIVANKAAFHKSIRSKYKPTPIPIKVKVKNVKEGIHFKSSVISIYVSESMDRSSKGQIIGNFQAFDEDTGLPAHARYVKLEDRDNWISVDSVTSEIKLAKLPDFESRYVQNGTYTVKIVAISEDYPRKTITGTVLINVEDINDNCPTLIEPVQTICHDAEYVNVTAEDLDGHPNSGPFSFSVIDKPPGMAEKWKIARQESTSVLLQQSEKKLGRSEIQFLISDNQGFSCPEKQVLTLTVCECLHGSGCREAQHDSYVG
From the text: FIG. 1. Residues found to be critically involved in binding to DSG2. A) Shown are the amino acid sequences of the Ad3 and Ad14p1 fiber knob. Beta sheets present in the Ad3 knob (PDB accession number 1H7Z_A) and Ad14 knob (PDB: 3F0Y_A) are indicated by lines. Black arrows indicate residues within the Ad3 fiber knob which, when mutated individually, ablate or reduce binding to DSG2. […] B) Schematic structure of dimeric Ad3 fiber knob mutants. The fiber knob domain and one shaft motif was fused through a flexible linker to a homodimerizing K-coil domain (41). The proteins are self-dimerizing and can be purified by His-Ni-NTA affinity chromatography. C-F) Analysis of binding of dimeric Ad3 fiber knob mutants to soluble DSG2. C and D) Coomassie staining. 10 μg of purified Ad3 fiber knob (unboiled) were loaded per lane. Trimeric forms of the fiber knobs are indicated by an arrow. The gel contained SDS and the loading buffer containing DTT, which caused the disassembly of dimers of trimeric fiber knobs as previously reported (41). E and F): Western blot using soluble recombinant DSG2 as a probe, followed by anti-DSG2-mAb and anti-mouse IgG-HRP. For comparison, JO-1 (0.5 μg/lane) is shown. The Western blots were scanned and signals were quantified.
Mini-PROTEAN precast gels (BIO-RAD, Hercules, Calif.) with 4-15% gradient polyacrylamide were used. A total of […] protein mixed with 2× loading buffer (10 mM Tris-HCl, pH6.8, 200 mM DTT, 4% SDS, 20% glycerol, 0.2% bromophenol blue) was loaded per lane. Samples were either boiled (B) for 5 min or loaded unboiled (UB). The following running buffer was used: 25 mM Tris, pH8.3, 0.192 M glycine, 0.1% SDS. After electrophoresis, proteins were transferred to nitrocellulose and incubated with recombinant human DSG2 protein and anti-DSG2 antibodies as described previously (42). The Western blots were scanned and quantified using the ImageJ 1.32 software (National Institutes of Health, Bethesda, Md.). JO-1 band intensity was set as 100%. […]

Row | Molecule | Inhibition of infection in the presence of dimeric knob (JO-1 = 100%) [1] [%] | Western blot residual DSG2 binding (wtAd3 knob = 100%) [2] [%] | binding result [3] | Inhibition of attachment in the presence of dimeric knob (JO-1 = 100%) [4] [%] | Competition of Ad3-GFP infection based on GFP expression [5] | DSG2 binding in Western blot compared to JO-1 [6]
1 | dimeric Ad3 fiber knob mutant D261N (designed binder) MKVSALKEKVSALKEKVSALKEKVSALKEKVSALKEGSGGGSGGGSGGGSNSIALKNNTLWTGPKPEANCIIEYGKQNPDSKLTLILVKNGGIVNGYVTLMGASDYVNTLFKNKNVSINVELYFDATGHILPDSSSLKTDLELKYKQTADFSARGFMPSTTAYPFVLPNAGTHNENYIFGQCYYKASNGALFPLEVTVMLNKRLPDSRTSYVMTFLWSLNAGLAPETTQATLITSPFTFSYIREDD | 5.3 | 0 | no binding | 45 |  | 
2 | F265L (protein) MKVSALKEKVSALKEKVSALKEKVSALKEKVSALKEGSGGGSGGGSGGGSNSIALKNNTLWTGPKPEANCIIEYGKQNPDSKLTLILVKNGGIVNGYVTLMGASDYVNTLFKNKNVSINVELYFDATGHILPDSSSLKTDLELKYKQTADFSARGFMPSTTAYPFVLPNAGTHNENYIFGQCYYKASDGALLPLEVTVMLNKRLPDSRTSYVMTFLWSLNAGLAPETTQATLITSPFTFSYIREDD |  |  |  |  | least reduced | almost completely ablated for DSG2 binding
3 | dimeric Ad3 fiber knob mutant F265L (designed binder) MKVSALKEKVSALKEKVSALKEKVSALKEKVSALKEGSGGGSGGGSGGGSNSIALKNNTLWTGPKPEANCIIEYGKQNPDSKLTLILVKNGGIVNGYVTLMGASDYVNTLFKNKNVSINVELYFDATGHILPDSSSLKTDLELKYKQTADFSARGFMPSTTAYPFVLPNAGTHNENYIFGQCYYKASDGALLPLEVTVMLNKRLPDSRTSYVMTFLWSLNAGLAPETTQATLITSPFTFSYIREDD | 17.6 | 0 | no binding | 55.6 |  | 
